Experimental findings from patent US20240270820A1 (ELANCO US, published 2024) are described below.

Experiment [1] deals with T1, canine IL13 with C-terminal poly-His tag (canine, UniProt Q9N0W9 19-131).
T1 construct: Expressed in 293 cells and purified from the supernatant
T1 sequence: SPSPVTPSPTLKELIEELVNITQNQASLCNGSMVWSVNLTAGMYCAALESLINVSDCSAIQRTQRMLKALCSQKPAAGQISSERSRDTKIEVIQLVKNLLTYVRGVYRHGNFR
Description: BLI (Octet), summary sentence of Example 4.

In experiment [2] the target is T2, canine IL4 (Sino Biological Inc, Cat #70021-DNAE-5) (canine, UniProt O77762 25-132).
T2 sequence (looked up): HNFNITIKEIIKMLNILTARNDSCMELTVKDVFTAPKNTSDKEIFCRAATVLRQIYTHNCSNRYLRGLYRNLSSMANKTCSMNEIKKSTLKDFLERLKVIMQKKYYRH
Description: cell-based or functional assay.

B1: canine IL13R-IL4R-IgGB (Fc fusion)
chain: TETQPPVTNLSVSVENLCTVIWTWDPPEGASPNCTLRYFSHFDNKQDKKIAPETHRSKEVPLNERICLQVGSQCSTNESDNPSILVEKCTPPPEGDPESAVTELQCVWHNLSYMKCTWLPGRNTSPDTNYTLYYWHSSLGKILQCEDIYREGQHIGCSFALTNLKDSSFEQHSVQIVVKDNAGKIRPSFNIVPLTSHVKPDPPHIKRLFFQNGNLYVQWKNPQNFYSRCLSYQVEVNNSQTETNDIFYVEEAKCQNSEFEGNLEGTICFMVPGVLPDTLNTVRIRVRTNKLCYEDDKLWSNWSQAMSIGENTDPTGGGSGSGSVKVLHEPSCFSDYISTSVCQWKMDHPTNCSAELRLSYQLDFMGSENHTCVPENREDSVCVCSMPIDDAVEADVYQLDLWAGQQLLWSGSFQPSKHVKPRTPGNLTVHPNISHTWLLMWTNPYPTENHLHSELTYMVNVSNDNDPEDFKVYNVTYMGPTLRLAASTLKSGASYSARVRAWAQTYNSTWSDWSPSTTWLNYYEPKRENGRVPRPPDCPKCPAPEMLGGPSVFIFPPKPKDTLLIARTPEVTCVVVDLDPEDPEVQISWFVDGKQMQTAKTQPREEQFNGTYRVVSVLPIGHQDWLKGKQFTCKVNNKALPSPIERTISKARGQAHQPSVYVLPPSREELSKNTVSLTCLIKDFFPPDIDVEWQSNGQQEPESKYRTTPPQLDEDGSYFLYSKLSVDKSRWQRGDTFICAVMHEALHNHYTQESLSHSPGK
notes: also called Canis lupus IL13R-IL4R-Fc; canine IL13R-IL4R-Fc
With B1, the binding result in experiment [1] is reported as “binds”.

B2: canine IL4R-IL13R-IgGB (Fc fusion)
chain: SGSVKVLHEPSCFSDYISTSVCQWKMDHPTNCSAELRLSYQLDFMGSENHTCVPENREDSVCVCSMPIDDAVEADVYQLDLWAGQQLLWSGSFQPSKHVKPRTPGNLTVHPNISHTWLLMWTNPYPTENHLHSELTYMVNVSNDNDPEDFKVYNVTYMGPTLRLAASTLKSGASYSARVRAWAQTYNSTWSDWSPSTTWLNYYEPGGGSGTETQPPVTNLSVSVENLCTVIWTWDPPEGASPNCTLRYFSHFDNKQDKKIAPETHRSKEVPLNERICLQVGSQCSTNESDNPSILVEKCTPPPEGDPESAVTELQCVWHNLSYMKCTWLPGRNTSPDTNYTLYYWHSSLGKILQCEDIYREGQHIGCSFALTNLKDSSFEQHSVQIVVKDNAGKIRPSFNIVPLTSHVKPDPPHIKRLFFQNGNLYVQWKNPQNFYSRCLSYQVEVNNSQTETNDIFYVEEAKCQNSEFEGNLEGTICFMVPGVLPDTLNTVRIRVRTNKLCYEDDKLWSNWSQAMSIGENTDPTPKRENGRVPRPPDCPKCPAPEMLGGPSVFIFPPKPKDTLLIARTPEVTCVVVDLDPEDPEVQISWFVDGKQMQTAKTQPREEQFNGTYRVVSVLPIGHQDWLKGKQFTCKVNNKALPSPIERTISKARGQAHQPSVYVLPPSREELSKNTVSLTCLIKDFFPPDIDVEWQSNGQQEPESKYRTTPPQLDEDGSYFLYSKLSVDKSRWQRGDTFICAVMHEALHNHYTQESLSHSPGK
notes: also called canine IL4R-IL13R-Fc; Canine IL4R-IL13R-Fc (SINK)
Take B2: the “TF1 cell proliferation assay (CellTiter-Glo luminescence), IC50 by 4 parameter logistic fit” value in experiment [2] is 2 nM. Besides, the binding result in experiment [1] is reported as “binds”.
